Laboratory results from patent US4029771A, “Composition for the treatment of bacterial-intestinal infections” (priority 1975, dated 1977).

Experiments:
[1] = test system: male and female rat (Sprague-Dawley); experiment: Acute toxicity on single administration, male and female rat (Sprague-Dawley); format: in vivo; conditions: for Mortality after 7 days: 1000 mg/kg single dose, 10 rats per dose; for LD50: single administration, 7 days
Procedure: (a) Toxicity on single administration.
The experiment was conducted on rats and mice (male and female) by oral and intraperitoneal administration of conalbumen dissolved in double-distilledsterile water. The animals were kept under control for 7 days following the administration.
Acute toxicity of the product after a single admini-
stration to the male and female rat (Sprague-Dawley).

[2] = test system: children affected by acute initial gastroenteropathy; experiment: Clinical efficacy test in 32 children with acute initial gastroenteropathy vs chemiantibiotic group; format: in vivo
Procedure: The tests were conducted on a group of 32 children (14 males, 18 females) of an age group comprised between 2 months and 2 years, affected by acute initial gastroenteropathy.
The test group comprised forms of substantial gravity (15.6% of the total cases), forms of intermediate gravity (43.7%), and finally forms of least gravity (40.6%), determined by known clinical diagnostic methods.
In all cases, in addition to the oral or parental rehydration (in 21.8% of the cases there was actually performed a parental rehydration with glucosaline and polyelectric solutions) and to the usual dietetic treatment, there was performed symptomatic therapy with anticholinergic agents.
The product was administered orally to all the test subjects at a dosage of 300 mg. per day, divided into three equal doses.
The duration of the therapy varied from a minimum of 5 days to a maximum of 10 days.
It was thought opportune, on a clinical plane, to evaluate the test results according to the following parameters:
(1) average time of normalization of the abdomen.
(2) number and percentage of the cases with regularization of the abdomen within the first 48 hours (see Table II and figure 1).
(3) average duration of the time of therapy.
There was further compared the test subjects with a group of subjects of similar age and equally affected by acute initial gastroenteropathy which had received, in addition to the usual symptomatic and dietetic therapy, a chemiantibiotic treatment.
It is important to note that this second group presented a clinical physionomy similar to that of the test group (and therefore with a percentage division equal between forms of different gravity) and further belonging chronologically to the same epidemiological period.

[3] = test system: germs which are pathogenic to man; experiment: Treatment of experimental infections in laboratory animals; format: in vivo; conditions: laboratory animals injected with germs pathogenic to man
[4] = Storage stability of the liophylized product; format: physicochemical
experimental animals = experiment: Tolerability in experimental animals at therapeutically active doses; format: in vivo
[5] = 32 cases per group, product oral 300 mg per day in three doses
[6] = percentage distribution, drawing
[7] = product vs chemiantibiotics group

B1: conalbumen: transferrin (ovotransferrin or conalbumen) extracted in a pure state from egg white (protein, UniProt P02789 20-705, looked up)
Ovotransferrin: APPKSVIRWCTISSPEEKKCNNLRDLTQQERISLTCVQKATYLDCIKAIANNEADAISLDGGQAFEAGLAPYKLKPIAAEVYEHTEGSTTSYYAVAVVKKGTEFTVNDLQGKTSCHTGLGRSAGWNIPIGTLLHRGAIEWEGIESGSVEQAVAKFFSASCVPGATIEQKLCRQCKGDPKTKCARNAPYSGYSGAFHCLKDGKGDVAFVKHTTVNENAPDQKDEYELLCLDGSRQPVDNYKTCNWARVAAHAVVARDDNKVEDIWSFLSKAQSDFGVDTKSDFHLFGPPGKKDPVLKDLLFKDSAIMLKRVPSLMDSQLYLGFEYYSAIQSMRKDQLTPSPRENRIQWCAVGKDEKSKCDRWSVVSNGDVECTVVDETKDCIIKIMKGEADAVALDGGLVYTAGVCGLVPVMAERYDDESQCSKTDERPASYFAVAVARKDSNVNWNNLKGKKSCHTAVGRTAGWVIPMGLIHNRTGTCNFDEYFSEGCAPGSPPNSRLCQLCQGSGGIPPEKCVASSHEKYFGYTGALRCLVEKGDVAFIQHSTVEENTGGKNKADWAKNLQMDDFELLCTDGRRANVMDYRECNLAEVPTHAVVVRPEKANKIRDLLERQEKRFGVNGSEKSKFMMFESQNKDLLFKDLTKCLFKVREGTTYKEFLGDKFYTVISSLKTCNPSDILQMCSFLEGK
[1]; female 90-105 g, oral
  Mortality after 7 days: 0/10
  LD50: > 1000 mg/kg
[1]; female 100-110 g, i.p.
  Mortality after 7 days: 0/10
  LD50: > 1000 mg/kg
[1]; male 100-120 g, i.p.
  Mortality after 7 days: 0/10
  LD50: > 1000 mg/kg
[1]; male 100-130 g, oral
  Mortality after 7 days: 0/10
  LD50: > 1000 mg/kg
[2]; [5]
  Average time of Therapy: 6,1 days
  Percentage normalization within 48 hours: 53,1 Percentage
[2]; 32 cases per group, product oral 300 mg per day in three doses, p <0,40
  Average time of normalization of the abdomen: 2,56
[2]; of 32 cases per group, product oral 300 mg per day in three doses
  No. of cases with normalization within 48 hours: 17
[2]; overall
  Clinical results: very favorable
[2]; overall comparison
  Clinical results with respect to the group treated with chemiantibiotics: definitely better
[2]; [6]
  Distribution in the time of normalization of the abdomen, days with most cases: between the second and third day
  Peak in the time of normalization of the abdomen: second day
[2]; [7]
  Average time of normalization of the abdomen, comparison with chemiantibiotics: slightly lower
  Number of cases and percentage of normalization of the abdomen within the first 48 hours, comparison with chemiantibiotics: higher
[3]
  Efficacy in experimental infections: surprising efficacy
[4]; liophylized, kept at ambient or lower temperature
  Maintains its properties unchanged: at least 6 months
[4]; vials containing 100 mg. or more, liophylized form
  Period for which the product can be kept: indefinite periods
Experimental animals
  Toxic manifestation or significant side effects: does not result in toxic manifestation or in significant side effects
